Laboratory results taken from patent US20240026407A1, “MODIFICATION OF SAPONINS” (GLAXOSMITHKLINE BIOLOGICALS SA, priority 2020, published 2024).

B1: 829 (protein, listed as Pseudonocardia sp.)
chain: MATVDEDLLTTLIARLDLDAKVRLLTGADFWSTPAEPAIGLRRMVLSDGPSGVRGESFDERSPSLSLPSSTALGATWDPELARRYGSTLGAEARRQHADVVLGPTINLHRTPFGGRHFEALSEDPLLTGELAAAYVEGLQAHGVAATPKHYVANDAESERFTVDNVVGERALHELYLAAFEPAVTRGGAWAVMSAYNAVNGATMSENPLLTEPLTGEWGFDGLVMSDWGAVRTTVASARAEQHLVMPGPVSTWGERLVAAVRGGEVDESVVDGKLRRLLRLAARVGALDGGPTPPPAPAPGDGATVARELAAAGSVLVRNTGELPWDASALGTVAVLGHNAALARTQGGGSATVRPAAVVAPLDGLRTALGGDRVRYRLGAQVAEGVQPFDPETVTDPVTGEPGLRAVFRAADGTALRSEHRLGASLIWMSGEIPGGAETVEVSTRWSPEPGAHRIGAAAVGHVTVSADGATVLDTEAVLTGDEGPGAAIFEAPSATAEITTDAPVDLVFRFRPSGGEAGMALFALTVGTETVVADPRAEVAAAASLAADCDVAVVVVGTNDRIESEGFDRTSLALPGHQDDLVRAVAAANPRTVVVVNSGAPVLLPWRDEVAAVLLGWFGGERFGDAVADVLLGHAEPGGRLPTTWPATGEERSVLSGRPTDGVLRYDEGVHLGHRNWLRHGETPAYPFGHGLGYTTWTLDDAVAGPWSADGVAVTVTLTNTGDRAGRQVVQAYLSRTGSDVERPARWLAGWAVVDAAPGTTTATVTVSRRAFRHRAGGVWATEPGTYELHLGFSVADTPLHATVEVVGEG
B2: 873 (protein, listed as Bifidobacterium longum)
chain: MSESTYPSVKDLTLEEKASLTSGGDAWHLQGVEAKGIPGYMITDGPHGLRKSLTSSTGETDLDNSVPATCFPPAAGLSSSWNPELIHKVGEAMAEECIQEKVAVILGPGVNIKRNPLGGRCFEYWSEDPYLAGHEAIGIVAGVQSKGVGTSLKHFAANNQETDRLRVDARISQRALREIYLPAFEHIVKTAQPWTIMCSYNRINGVHSAQNHWLLTDVLRDEWGFEGIVMSDWGADHDRVASLNAGLNLEMPPSYTDDQIVYAARDGRIAPAQLDRMAQGMIDLINKARAAMSIDGYRFDVDAHDEVAHQAAIESIVLLKNDDAILPLNADPAAARKIAVIGEFARTPRYQGGGSSHITPTKMTSFLDTLAERGIKADFAPGFTLDMESADPALESEAVETAKNADVVLMFLGLPEAAESEGFDRDTLDMPAKQIALLEQVAAANKNVVVVLSNGSVITVAPWAKNAKGILESWLLGQSGGPALADVIFGQVSPSGKLAQSIPLDINDDPSMLNWPGEEGHVDYGEGVFVGYRYYDTYGKVVDYPFGYGLSYATFEIADVAAAKTGANTATVTATVTNTSDVDASETVQVYVAPGKADVARPKHELKGFTKVFLKAGESKTVTIDLDERAFAYWSEKYNDWHVESGEYAIEVGTSSRDIAETVTVALDGDGKTQPLTEWSTYGEWEADPFGAKIVAAVAAAGEAGELLKLPDNAMMRMFLNSMPINSLPTLLGEGGKKIAQFMLDEYAKLSK
B3: 870 (protein)
chain: MTEQTHTKAKDLDLQEEASLTSGSDSWHLQGLPDKGYEGYMITDGPYGLRKATGSDVYGSVPATCFPPTAGLASSWNPDLTYQVGQAMGEECIQEKVAVILGPGINIKRSPLGGRNFEFYSEDPVLAGHEAAGLVEGVQSKGVGTSLKHFAANNQETDRLRVSSDVDVRTLREIYLPAFEYVVKNAKPWTIMCAYNKVNGVFSSENRWLLTDVLRGEWGYQGMVMSDWGAVHNRVDALQAGLNLEMPPSRTDDQVVQAVQAGKLDKEQLDRMAQGILDLIDKARPAMSQQGYRYDVQEHNDMARRAAQESIVLLRNEDRILPLDPQKKVAVIGEFARTPRYQGGGSSHITPTEVSSALDGFKEAGMNVDFAPGFTLDEKEQDPALTRQALEVARGADTVVLFLGLPEYAESEGFDRTSMDLPEKQVALLKAVSEVNDRVVAVLSNGAVVTVADWMDKTKGLLETWLLGQEGGRAVVDVLTGAATPSGHLPETIPVRLEDNPTITSFPGEEGHSRYGEGVYVGYRYYDTFQRPVAFPFGFGLSYADFALDQVAVTKTGASSARVEVTVTNTSQVDGAQTVQVYVAPCASRVNRPSHELKAFTKVFLKAGQSSRVSMDLTERDFAYWSTAMDAWHVEAGTYRIQVGTSSRDLVAEEDLQVDGDGRFIPLNAESTMAEWRENSIGGPIMRDRIDQDGIPLPDDPNTAQLFDTMPLASVITLSGGDGNGIVADMVDRYHQALKQQGRDS
modifications: Bifidobacterium asteroides
B4: 828 (protein, listed as Bifidobacterium pseudocatenulatum)
chain: MSEKTYPSINDLTLEEKASLTSGGDAWHLQGVEAKGIPGYMITDGPHGLRKSNSATTGEVDLNNCVPATCFPPAAGLSSSWNPELIHQVGEAMAEECIQEKVAVILGPGVNIKRNPLGGRCFEYWSEDPYLAGHEAIGIVAGVQSKGVGTSLKHFAANNQETDRLRISANISQRALREIYFPAFEHIVKEAQPWTIMCAYNCINGVHAAQDHWLLTDVLRDEWGFQGIVMSDWGADHDRVASLNAGLNLEMPPSYTDDQIVYAARDGRIQPAQLDHMAQGMIDLVNKTRAAMSIENYRFDIEAHDEVAHQAAIESMVLLKNDDAILPIAGDAKVTVIGEFARTPRYQGGGSSHITPTKMTSFLDTLTERGVDAKFAPGFTLDLEPADPALEAEAVDAAKGADVVLMFLGLPEAAESEGFDRETLDMPAKQIALLEAVAAENKNVVVVLSNGSVVTVAPWAKNAKGILESWLLGQSGGPALADVLFGKVSPSGKLAQTIPFDINDDPSTINWPGEEGHVDYGEGVFVGYRYYDTYNKAVDYPFGFGLSYATFEVSDVKAVKTGACTASVSAVVKNTSNVDAAETVQVYVAPGKADVVRPKHELKGFKKVFLKAGESAEVSFELDDRAFAYWSERFNDWHVESGEYTIEVGTSSRDIAGSAVVELDGDGKAQPLTEWSNFMEWRKDPLGSKVLEILRAEGEAGRMPVVPDNDMTRLFLDSMPINSMSVLMGADGKQIFEYMLEKYAELTK
B5: 808 (protein, listed as Microbacterium lemovicicum)
chain: MTTESTVATSDATSHLLPLLAQLTLAQKAAFVQGADFWATVPLPEIGVRSMTLSDGPAGVRGPRWDEREPSLNLPSGSALAASWDIDLAYRYGAAAASEARRKGVDVVLGPTINLHRSPLGGRHFECFSEDPELTAELGAAYVRGLQDNGVAATPKHYVANDSETDRFTVDVRVDERALRELYLAPFERAVEAGTWSVMSAYNSVDGVTMTENDLLETPLNSEWGFDGVVVSDWTAVRSLDAVAASQDLAMPGPAPAWADLVAAVEDGRVSEADLDRKVLRMLLLAERVGALEGAPGIEPAPVDGVAFTREAAVEGTVLLTNDGTLPLDAAALRSVAVIGHNALEARTQGGGSATVLPEHVVSPLEGLRTALPDAAVSYEIGAVVQEGVAELPLEQLQNTVTGEPGLRVSFFDADGLELFTEDRRSTALVWFGGDAPIAASSSVVLETVYTPAETGEIQLGFAGANPGRVSIDGVEVLAETPLIEGTDLGAAFLNPPSSTAAVRAEAGRPLRLRAEFALSSGGPLAGALSVTLGIAPETTDPDELIARAAAAAASADVAVVVVGTNSKVESEGYDRVDLDLPGRQDDLVRAVAATGTPTIVVVNAGSPVVLPWAGEVAAVVQGYFGGQEFGSAVAAVLTGAAEPGGRLPTTWPAALADVPVTDVAPQDGVLAYTEGIHIGYRAWLRADAAPAFPFGHGLGYTTWSWGAVQRDGDALDVTLANTGARAGKQVVQVYAERADSTVERPVRWLVGFATVRAEAGQTVTATIPLPARRFAHWSDGWQVEGGAFTLRAGASVADLPLTMEWSIGD
B6: 838 (protein)
chain: MSEHTYPSVKDLTLEEKASLTSGGDAWHLQGVEAKGIPGYMITDGPHGLRKSLATSTGETDLDDSVPATCFPPAAGLSSSWNPSLVRKVGEAMGEECIQEKVAVILGPGVNIKRNPLGGRCFEYWSEDPYLAGHEAVGIVEGVQSKGVGTSLKHFAVNNQETDRLRVDARVSQRALREIYLPAFEHIVKTAQPWTIMCSYNRVNGVHSAQNRWLLTDVLRDEWGFKGIVMSDWGADHDRVASVNAGLNLEMPPSGTDDEIVYAARDGRIDPAQLDRMAQGMIDLTDKARAAMSIDGYRFDVDAHDEVAHQAAVESMVLLKNEDAILPLKKDAKIAVIGEFARTPRYQGGGSSHITPTKMTSFLDTLAERGIKADFAPGFTLDLDPADSALELEAVETARDADVALLFLGLPEAAESEGFDRETLDMPAKQIELLAKVAAVNPNVAVVLSNGSVVSVAPWAGNAKGILESWLLGQAGGPALADVIFGEASPSGKLAQSIPLDINDDPSMLNWPGEEGHVDYGEGVFVGYRYYDTYDVAVDYPFGYGLSYASFEISDVHAEKTGANTASVTATVANVSDVDGAETVQVYVAPGKAEVARPSHELKGFAKVFLKAGESKTVTFDLDGRAFAYWSEKYGDWHIEAGAYGIEVGTSSRDIAATATVELEGDGKSLPLDEWSTYGEWEADPVGARVVAAVEAAGESGTLPKLPDNTMMRIFLKSMPINSMPMLMSDGGRRITAFMLDEYAKLTK
modifications: Bifidobacterium stellenboschense

Columns and labels:
Assay type in all cases: biochemical, Quillaja saponaria
[1] = Experiment 5-1: screening of additional glucosidases for deglycosylation with purified QS-18 (0.04 mg/ml) at pH 7.5 and 30 deg C; settings: pH 7.5, 30 degrees C, 18 hours, LCMS/MS
Method: The 94 additional genes, together with positive control (DNA encoding SEQ ID No. 262) and negative control, were transformed, expressed, lysed and reacted in the same manner as described above for Experiment 4-1, except the reaction was incubated at 30 degrees C. for 18 hours.
Samples were analysed by LCMS/MS according to the procedure in Experiment 4-1.

[2] = Experiment 5-2: screening of additional glucosidases for deglycosylation with QS-18 in crude bark extract (80%) at pH 6 and 35 deg C; settings: CBE 80%, pH 6, 35 deg C, 18 hours; UV HPLC
Method: A plate was lysed at pH 6 as described in Experiment 4-2. 40 uL of clarified lysate was transferred to a reaction plate
The pH of CBE was adjusted to pH 6 by dropwise addition of 2M NaOH with stirring. 160 uL of pH 6 CBE was added to each well of the reaction plate. The reaction plate was sealed and incubated at 35 deg C. with shaking for 18 hours.
The reaction plate was quenched by adding 200 uL of MeCN (2% acetic acid (AcOH), 1 mg/mL hexanophenone) to each well of the plates. The quenched reaction plate was re-sealed and incubated at 20 deg C. with shaking for 10 min. The reaction plate was then centrifuged (10 min, 4 degC).
200 uL was transferred from each well of the quenched plate to the corresponding wells of a fresh 96 well plate and sealed. The plate was analysed by UV HPLC with the method of Experiment 4-4.

[3] = Experiment 5-3: screening of additional glucosidases for deglycosylation with QS-18 in treated bark extract (80%) at pH 6 and 35 deg C; settings: TBE 80% (QS-21 approx. 4 g/L), pH 6, 35 deg C; UV HPLC
Method: Experiment 5-1 was repeated, replacing CBE with Treated Bark Extract (TBE) at pH 6. TBE was prepared from CBE by PVPP treatment and concentration, to provide TBE with a QS-21 concentration of approximately 4 g/L. TBE was adjusted to pH 6 by dropwise addition of 2M NaOH with stirring.

Row | Molecule | Experiment 5-1 % conv [1] | Experiment 5-2 % conv [2] | Experiment 5-3 % conv [3]
1 | B1 | 52.3% | <0.5% | <0.5%
2 | B2 | 43.9% | <0.5% | <0.5%
3 | B3 | 49.7% | <0.5% | <0.5%
4 | B4 | 50.7% | <0.5% | <0.5%
5 | B5 | 52.0% | <0.5% | <0.5%
6 | B6 | 53.4% | <0.5% | <0.5%
